# Results: the NTF2 design screens of Basanta et al. (2020)
# Experiment: protease stability score; higher = more stable; yeast display proteolysis, trypsin and chymotrypsin;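 note: log10 excess protease needed over predicted unfolded state with 0 meaning unfolded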
row,Sequence,protease stability score
1,DEKKALEIAEKVARYVAEGNSDKAKELGKEGVEAKVGDTTVHGPDQLKEYVKKVKDQGNRYEYKETHKEGNTVQFKTEVEKGNAKVEFTAEYQVEGDKLVRAEVRFNKEQQKKFQKS,-0.214
2,DDENQQHFAEKMATAVIKNDPDEIVRLADPNVQVQVGEKEVHGREEVHELMEELKDQADHVHLVSVHVSNGQVNIVVDVVVNGKRLRVTITVKFNNGKVRYIRVDPEFQRKMDK,-0.095
3,DEEKNETAKQLQRIEETGNKDEVQEMLDKDADIHIGDKVVHGREEYARQVHRRRDEINVQIDEVHYKDEEGSVVVRYTAMQEVNGRPIKNSFQRVQHIDNGRVKHMHFKFSEEQERQMRG,-0.055
4,DEKEYAEQFFRHMEEIYQNGDEDRAQELFDPNARMEVGDKEVHGNEKFREEIHKIKETSDRFSIRVKEIDVHGDKIVVEAERSFEHNGQRRSEVYTVRMVIENGQAKIKSAHHK,0.235
5,EEKATRIAHELLSAVERGDEDRAEENFDENAQFQVGDKDIHGREQMKHFVKTVKEQSRLDMHITDVQDRPGHANVKATAREDNNGNPNNIRITMRASVSNGRIQSMQINYTD,-0.638
6,DEELADKMRKWWQNVHQGNHDHIREMVDPNVKFQVGNKQYHGRETMSSLVVELKREITFRVDRMSASVHNGRLHVRLDIKYEVNGQPDRENLRIEANIHNGKIKSLSVQMDNEKLKKLHK,1.03
7,DEKEIHEIAETFVEVLRNGNHDDLKELMDENVKLVYGDKELQGHHRAASHLAELVSRVDHMSVDSITVNGDSVKVIMQFVVNGVTAHITIIIKMTNGRIKELEIRYTNEDQRRQVDK,0.941
8,DEEELMNRFWETMERIMEKGDEDTMRKQVDPNAKAEYGDKTVHGRHQFAKFWIEQARRADHIKFDIKSIDVKPPTIVVRLTVKFNVNGTNHKRDISIVFKVHNGRIVLHNAHEN,1.02
9,DEKRMVELMRKIFKTIINGNEDEVKKILPPHGEYHYIDKKFEGKEVAEYIIKLVKKMGAEAKVKEQEVKGDTAKATFQYRKGDKTVQTKAEVKYEGDKMKKARVENTDEVRKVVHQG,-0.024
10,DEKKVKEMVTEAQKAIENNDSDTMAKFLKPDVEFHFGDVKLKGPEDVKKYYDKVRRVGMEAHVKEAEVKGDTAQVVYDVEVKGKRVTITARVQMKDERVDRAEVELDEDYAREVTEG,-0.02
11,DHKEETKKKDEARRVLETNDPRKKLKLMDPNARANVGDKRYHGREELKRRADEERKRVDHAEVKRVEANGDHIIVDFVFVVNGKTKRNSLNINMHNGRVKEVNVESR,-0.143
12,DHRAIHLVRENLDARRHNDSKKAREMADKDATFHIGDRFIHGMDSFVKTLTDENREMRIEIERMSYNDRPGRVEVKQDVRENHNGSPKRFTYHAEMHVQGDHVRTQTEHRTD,-0.281
13,DERDQRRRMDQARKILKNNDEEKFNRLLDENARMRVGEKVFHGRRQARTHLKRLHEHVDSIRVNHVSVHNGNVEVVVTMQHNGRYRQIRFDMQVHNGRAKEVKIDTS,0.091
14,DEKDMEQQDRVFRHGNEKKLEDLVDEDARVEVGNRRYHGREQVVRFFQQQVKQVDHRTIRSVKLTGDKFDAVLQVVINGQTYTYRFKAKVHNGKVKVLRVEFTDPQREKEFEKQLD,0.206
15,DDDQLRKFLEILRSGNEDDMERQADKDARARVGDDHYHGREEVAHMIRNFLHRADHIEVKSVRFTGEKAKVDMHAVVNGQELRLIIEAEVHNGTLKHIVMKVTDEEHKRTLERAMS,0.29
16,DPRKVKDAVRKVVEAMMNGDVEKIVKLYKPDGELYLGSQKVRGQEQVEKEAKKFYDKGARFQVKEQHVKGDNATVVFDMTANGQTVTFQFEIKVKDDTVDKYEVRFTEKADELRRKG,-0.136
17,DERNKRRFDEFERARKTGDPDRMKELADPNAKLDVGNKTITGMDEIVRQLKHEQDKIEIDIKFDRITVQGNNLRAEYHEEYNVNGKPFHDKVVLEVQFDNGKIRELKLRVDPEKQDERRT,-0.003
18,DEERVKDLVKKIFKDIRNGDEERVRKKGKPDVKYEYADKTFEGEDAVRFIVEILKKVGAEDKTQNETVHGDKAQANFQYDKGDQTAQTTAQVEYKGDKVDKMRVKISEEVKKVVEQG,-0.116
19,DEKQKKDLLKQAVEMYLSGNSEEVRKLLKDDGEVEAGDQTYKGVEQVMKVVEQFKRYGVKLQMTDLKVDGDTVKVKAKLQNGGKTWEFEVTAQADGGKVDKITFKYSEEAKEDIEKG,-0.056
20,DKDAARRVQEMIRQQQTGNPTEVEEQADKDVEFKVGDKVVHGRRELKKEVETHKRESRLEVQKIEIKDHGDKAKLIIYFRVHENGEPRKRTVQVRAKYQNGKVKMIEVDSTK,-0.006
21,DTEQLKVFKEFVDAHRHNNPEELKKQMDKDVHFRVGNKQIHGREKAAHYWETIMHEIRVEWKSIVMKDSNGKAKAKFRFVENVNGKPQENTYDLEFSARNGRINSITMRFDEDQQRHHKK,0.345
22,DEDEERDFEEMWKVFHKGNPDDYKKMIDKDVEIRIGDKTVHGREEIVRQVHHEMNNINFQLQSVDIRVTNGRVEIDVRYVSNVNGRPDTIRYTYHASASNGKLKTAEYRISEDQQNRHRR,-0.273
23,DEEQQKEQKKRLREMIETNNEDELQRQADKDVKVVVGDQTYHGREEARKWVHELKRRVDHVRVDRVEAHGNKISARYRASVNGETQRYNMVIHITNGRIQHMRVTEG,0.894
24,DEKKVKELVDTLFDVMRKGDAERFRRYLKPDVRFEFGDITMQGPDQMEKYYRQDQKYGNEMHIKHKEVHGDRAKVTYDVEIKGTRATVEAEVHVRDEKVDEAKAEFDEDYKKYFTKG,-0.121
25,DEEEDKKMLDNINTIWERGNPDEIEKLIDPNARVQVGDKTLHGREQIKHFLKRLHERIDHFEYQSVSAHNGRMRARVRFRVNGVHVRMEIDATYNNGKVKKMEVRVTDEKHLERARK,0.741

row,Sequence,protease stability score
1,DKELRHSWEDQLRAEEEGDENRLRELIDPNASFVVGDKSIHGREQFADDMRRKLTEMRVEIKSYSVHAHNGHLDIKVHRRVNHDGEPKEDTYRADVQADNGRIVRVTIQSDG,-0.652
2,DERDAETWTRMLEAVEYNNPEEVRKNADPNANFVYGNKTITGREQYAEEMKKEMDDMRKHVKIDDYHVEGDNIHVSAKFEWEVNGTPVRDTVSVQFVAENGKVRSVQYRFDPDSERKEDQ,-0.641
3,DEERKEQLLEIYKAIDTGNPEKVKELADPNAHVQYGDKSVHGMDDAVRQLEKRRKEIRIHWDVKSVHVEGNKVDVVAENEEEHNGHPRSHTVRVNAEFQGDKMKNAHYQSDK,-0.202
4,DEELQSQAERFLKNLQRGDETKLLQQMDPNAKMQYGDKTVHGRERLRTWVKHVKDEMRVQVDKFRQTVSGNHIRFDWDATFNINGTPDKIRIDVDIQVHNGRIKLITFRVSEEQTKRLHS,0.371
5,DEDDLQRKVERINSALQTNDEDEFVRQLDEDAKISVGDKTVHGQEKAREWVQDLRRTVDHIRVDHVKVHNGRAHVTMKAVVNGKNVEITMQMTLHNGKVKEMRIDPEDVEKLEG,0.807
6,DEEKDQKLATDLSDVIKTGDKEKMVKMADPNARIIVGDRVYHGREVILRWVRTLRERVDRIQIDSYDARDGKVRIIFQVRFDGRTTKIDLVVQYDNGHAKKIEVREK,0.075
7,DEEAEKELRKMFQNENKGNPNEVMKQFDKHARVKVGEKEIRGRHQVHNYVDHVRKEMRRQIDSMSLEVHGNKLIVHITYVADINGHPVRVQVQYIIQFHNGKIKEVKVKIDEDEKRRMDQ,0.385
8,DEDAQKRAEEMMHALQNGDEKQIQTLFDKDAKVNVGDKEYHGKEQLAHDLKRRHDKIRVDYKDVHIRAHGDKVSLTFRVRVKINGVPADNSFQFTLKFRNGHVQSMSQQFDPKYEQDQRN,-0.033
9,DEEKLREMMKKWQKVVQEKNTDEAKKLYHPNGEWENGSERDQGVEKVVKAIKTAQEKGFEFQIREVEVKGDKATMIYDLRNGDKTVTFHVEMEVDGGRVKRVRAKVSEEAKKLLTKG,0.511
10,DERHIHELVKNMQTNNFEEIKKQLDENVRVVVGDTVYHGREQASKALEDMKRMADRIRYTRVDFKGNKVRIDVVMNINGHNLKMVITVVVQNGRIKELVFTARNDEVKTRLDHAIR,1.13
11,DDKTIKENLKVFNRGNPDDMKTLMDKDVRLEVGEKSVHGREQAQTWQDRYERQVDHRRVKSYSMNGNNVVADMVVQVNGREYEVRLEVHVHNGRIKVLRLEVRDEDDRRNLKRLLS,0.211
12,DDDALRRLEELWSALEEGDESRVNRNIDPNARLKIGDTTIHGREKLAESLVRDWKEIKLEIEFKTLEAHNGQARLEAIEHFRINGRPEQINFRMQMHQRNGNVDEIVIEMDPDQQRKKES,-0.133
13,DEEEVKRQLDQVAKALLHGDEKQAKDLADPNVSANYGDKKLHGRENFSKWVKKFRHQIDHLELKDIRVNGDRLVIEVQANVNGQDVDVVFNLKLHNGKVKHMSVEYRDEQAKRELKK,0.49
14,DEEEDKKVKHLITNIREGNSDDFIKMMDPNARLVYGDQRVKGTSQAREFVHSLHEQARIDLEVKHITAHNGRIDVTVKMELEVNGQPYRFSVNVIVHIRNGKVQEVVFQFDPRDEQRNRK,1.24
15,DEEDIRRIVHEFNRAVQRGNPDDVVRLLDKHAKIVVGEFDVTGREDARKFAEQLRSMADHVTIKSMSVQGDKAHVVIVFDINGKKLTLTFEVQLHNGRVQNLHVDVRDEEEFSRNVG,0.782
16,DQEVREYIKRVYSTGDPDELNKLIDKDVRMRVGDKEVEGRETVQTIMRDWMTRVDDIKVHSYDVRGNKANYDAQYVFDGRSARFVIHIEFHNGRVKHVVVEATNEEVKQLLRDMLS,1.33
17,DEELLHRIRDFLRAVRHGDSDHLRQLMDEDVKMTVGDHEIHGRERILDKIKQTRDEQRIHIQVRSMHADGDKATVHADIENEHNGQPQTAKLRMTVQVENGRIKQIDVEIKQ,0.904
18,DKEVNNMAEKFLDAFRTNDPDQVRRLADENASFRVGDKVLTGMTEAVRELHRQVKQMEVRITDVKNSVQGDQANLDIHFDVHDNGKPDTRRMVLVVNVENGRIREVEVNQDD,0.4
19,DEEAVKRANEMVEAWEHGDESRFMKLVDPNAQVRVGDKEVHGKEDMNRSIQEESRQLRVHRRVESVESQGNEVKIDLVFTQNVNGQPIQQRVDVVITFRNGKAVDIQLDIPEDQQQQHRR,-0.131
20,DPKKAHEVAEEVMKAFVNGNDEQVKRLLKPDVTAKVADRETQGPEQIVRYLRRFDKLGVQYHEEETRKEGNRVEVHTKYKKGDQEATVTVVYEADNGKVDRIEVRYDEEMKKLFEKG,0.279
21,DDDKAKEIARQVWHAIREGDEDEAKRQFDKNARVVYGDKTVHGKEQAARMVHEWRRRIDHLEINDMKVDGNSVHVVFRYVHNGRERTQVVRIELDNGRVKNAEFTDQ,1.46
22,DSRAVHLAKNFMSALKTGDHDRARDNLDKDARISIGDKVWHGMDEAVHDIKREKEEMRIEFRKVDAKDSNGKVRMDADVVFNHDGRPDKFRLDADIEVHNGRIHVLDVENSK,0.264
23,DEEDMQRFFKEFLKAQETGDPDEIRRQMDPNARAHVGDKEYHGREQVAKMFRDVRERVDRIRIESVDIQGNKANVDVTYNVNGRKARINVTLKAHNGRFKEMHFNPEDTKEMEK,0.033
24,DKEIKDLARQVLTAEKTGDPEQFKKLFDPNVHVEVGDKTVTGREEASREFKKSQQELRIDMKSVSVTVEGNSVDIEIHAHLKVNGRPIDMHFRIILTFHNGKVHHVQLQVSEDQLRKMSQ,0.668
25,DSEERHDFAHKVMEVFQQGDPDQMRDMADPNVRLHVGEKNVTGRDRVRTALTEFRQRVDHVQVDHVHVTGDKIVIHATVEINGRRRRVIIVARVRNGRIHEIEVDLK,1.61
